pKd: −log10 of the molar value.
Biological target: recombinant mouse CD39 (mouse) (UniProt P55772)
Assay: BLI, Duha59 amine-coupled to AR2G biosensor, recombinant mouse CD39 as analyte, 1:1 model

recombinant mouse CD39 (mouse), sequence (P55772 38-478 limits assumed): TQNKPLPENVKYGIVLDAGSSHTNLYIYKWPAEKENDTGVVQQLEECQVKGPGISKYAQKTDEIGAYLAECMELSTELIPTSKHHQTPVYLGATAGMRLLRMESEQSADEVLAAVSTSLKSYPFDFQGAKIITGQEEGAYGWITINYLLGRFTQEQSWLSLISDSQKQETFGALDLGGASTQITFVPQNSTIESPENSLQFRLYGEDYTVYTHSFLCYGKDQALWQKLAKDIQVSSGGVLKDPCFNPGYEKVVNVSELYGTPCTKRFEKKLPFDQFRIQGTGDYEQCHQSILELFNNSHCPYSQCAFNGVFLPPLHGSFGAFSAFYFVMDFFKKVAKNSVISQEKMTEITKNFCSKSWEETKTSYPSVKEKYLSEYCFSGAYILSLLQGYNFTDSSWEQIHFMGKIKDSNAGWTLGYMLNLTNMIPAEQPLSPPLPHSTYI

pKd: 8.96
Substance: rat anti-mouse CD39 Duha59 clone (antibody)

Reference: patent publication US20220372160A1
